{"source": "paper PMC10053881", "about": "(Pharmaceutics, 2023)", "tested_on": "gastric NET with lymph node and hepatic metastases", "test": "PET/CT imaging in a NET patient", "assay_type": "in vivo, human", "conditions": "[68Ga]Ga-DOTA-NOC 1 h pi, [68Ga]Ga-DATA5m-LM4 10 min–3 h pi", "description": "After a preceding PET/CT imaging with [^68Ga]Ga-DOTA-NOC ([^68Ga]Ga-DOTA-[1-Nal^3]octreotide), the patient underwent first PET/CT with [^68Ga]Ga-DATA^5m-LM4 on a dedicated GE Discovery 710 × 128 Slice PET/CT Scanner (GE HealthCare Technologies Inc.,/GE Healthcare, Chicago, IL, USA), with a 40 mm detector at a 0.35 s rotation speed and a 128-slice CT scanner. The images were corrected for random and scatter counts, decay correction and dead time correction. PET images were reconstructed with iterative reconstruction using ordered subset expectation maximization algorithm (OSEM) (2 iterations, 24 subsets). They were processed and analyzed with a dedicated commercially available workstation (GE Xeleris). Further details on the patient preparation, scan and data acquisition protocol are included in the Supplementary Materials.\nRadiosynthesis of [68Ga]Ga-DATA5m-LM4 and [177Lu]Lu-AAZTA5-LM4 for Patient […]\nFor radiolabeling of DATA5m-LM4 with Ga-68, [68Ga]GaCl3 (200 MBq) obtained from a commercial [68Ge]Ge/[68Ga]Ga-generator (ITM Isotope Technologies Munich SE, Garching, Germany) was added in a vial containing a solution of DATA5m-LM4 (50 µg, 32.5 nmol) in 500 µL of 1 M sodium acetate buffer pH 4.5. The reaction mixture was heated for 15 min at 95 °C, affording [68Ga]Ga-DATA5m-LM4 in a radiochemical purity […]", "note": "Entries after “also recorded” stand apart in the source; their conditions may differ."}
{"substance": "[^68Ga]Ga-DOTA-[1-Nal^3]octreotide [[^68Ga]Ga-DOTA-NOC]", "values": [{"measurement": "uptake in liver metastases on PET/CT", "result": "mild to negligible uptake; also recorded: weak uptake"}]}
